Results published in patent US20240368239A1 (SL METAGEN, published 2024).

What was measured:
Experiment in all cases: cell-based or functional assay
GLP-1 receptor [1] = target: GLP-1 receptor
human GLP-2 receptor [2] = target: T1, human GLP-2 receptor (human, UniProt O95838 1-553)
T1 sequence (looked up): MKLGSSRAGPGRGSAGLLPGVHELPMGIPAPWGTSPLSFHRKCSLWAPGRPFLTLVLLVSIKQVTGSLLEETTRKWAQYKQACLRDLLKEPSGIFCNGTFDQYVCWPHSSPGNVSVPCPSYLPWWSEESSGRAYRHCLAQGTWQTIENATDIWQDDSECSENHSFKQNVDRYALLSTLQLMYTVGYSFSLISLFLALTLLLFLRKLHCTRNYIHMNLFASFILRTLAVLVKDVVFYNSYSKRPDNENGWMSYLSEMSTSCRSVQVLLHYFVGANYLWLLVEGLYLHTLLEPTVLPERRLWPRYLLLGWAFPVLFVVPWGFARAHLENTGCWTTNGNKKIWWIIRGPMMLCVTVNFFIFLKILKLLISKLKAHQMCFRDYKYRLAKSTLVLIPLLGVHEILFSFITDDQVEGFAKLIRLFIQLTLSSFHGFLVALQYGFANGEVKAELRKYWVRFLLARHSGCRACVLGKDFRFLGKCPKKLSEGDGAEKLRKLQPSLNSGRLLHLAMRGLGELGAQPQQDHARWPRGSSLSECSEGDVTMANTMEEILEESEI

GLP-1 receptor [3] = target: GLP-1 receptor; remark: listed apart in the source
GLP-1 receptor [4] = target: GLP-1 receptor; remark: listed apart in the source
human GLP-2 receptor [5] = target: T1, human GLP-2 receptor; remark: listed apart in the source

B1: MG12-4 (bispecific fusion protein of Example 4) (Fc fusion)
chain 1: HGEGTFTSDVSSYLEGQAAKEFIAWLVKGGPSSGAPPPSGGGGGSGGGGSGGGGSAKNTTAPATTRNTTRGGEEKKKEKEKEEQEERTHTCPPCPSHTQPLGVFLFPPKPKDQLMISRTPEVTCVVVDVSQEDPEVQFNWYVDGVEVHNAKTKPREEQFNSTYRVVSVLTVLHQDWLNGKEYKCKVSNKGLPSSIEKTISKAKGQPREPQVYTLPPCQEEMTKNQVSLWCLVKGFYPSDIAVEWESNGQPENNYKTTPPVLDSDGSFFLYSRLTVDKSRWQEGNVFSCSVLHEALHNHYTQKSLSLSLGK
chain 2: HGDGSFSDEMNTILDNLAARDFINWLIQTKITDGGGGSGGGGSGGGGSEKEKEEQEERTHTCPPCPSHTQPLGVFLFPPKPKDQLMISRTPEVTCVVVDVSQEDPEVQFNWYVDGVEVHNAKTKPREEQFNSTYRVVSVLTVLHQDWLNGKEYKCKVSNKGLPSSIEKTISKAKGQPREPQVCTLPPSQEEMTKNQVSLSCAVKGFYPSDIAVEWESNGQPENNYKTTPPVLDSDGSFFLVSRLTVDKSRWQEGNVFSCSVLHEALHNHYTQKSLSLSLGK
modifications: glycan linker (SEQ ID NO: 43) with N-glycosylation sites
In the case of B1, the “EC50 (pM), cAMP luciferase reporter in GLP1R_cAMP/luc cells” value (shortened to “EC50 (pM) … in GLP1R_cAMP/luc cells”) (GLP-1 receptor [1]) is reported as 66 pM, the “vs. GLP-1 relative activity (%)” value (GLP-1 receptor [1]) is reported as 39% and the “EC50 (nM), cAMP-gated CNG channel membrane potential dye fluorescence (Ft/F0) in Human GLP2R ACTOne cells” value (“EC50 (nM)” for short) (human GLP-2 receptor [2]) is reported as 1.22 nM. The “vs. GLP-2 relative activity (%)” value (human GLP-2 receptor [2]) was 48%.

B2: MG12-1 (bispecific fusion protein of Example 1) (Fc fusion)
chain 1: HGEGTFTSDVSSYLEGQAAKEFIAWLVKGRGGGGGSGGGGSGGGGSAKNTTAPATTRNTTRGGEEKKKEKEKEEQEERTHTCPPCPSHTQPLGVFLFPPKPKDTLMISRTPEVTCVVVDVSQEDPEVQFNWYVDGVEVHNAKTKPREEQFNSTYRVVSVLTVLHQDWLNGKEYKCKVSNKGLPSSIEKTISKAKGQPREPQVYTLPPCQEEMTKNQVSLWCLVKGFYPSDIAVEWESNGQPENNYKTTPPVLDSDGSFFLYSRLTVDKSRWQEGNVFSCSVMHEALHNHYTQKSLSLSLGK
chain 2: HGDGSFSDEMNTILDNLAARDFINWLIQTKITDGGGGSGGGGSGGGGSEKEKEEQEERTHTCPPCPSHTQPLGVFLFPPKPKDTLMISRTPEVTCVVVDVSQEDPEVQFNWYVDGVEVHNAKTKPREEQFNSTYRVVSVLTVLHQDWLNGKEYKCKVSNKGLPSSIEKTISKAKGQPREPQVCTLPPSQEEMTKNQVSLSCAVKGFYPSDIAVEWESNGQPENNYKTTPPVLDSDGSFFLVSRLTVDKSRWQEGNVFSCSVMHEALHNHYTQKSLSLSLGK
modifications: glycan linker (SEQ ID NO: 43) with N-glycosylation sites
B2 was tested, and the “fold reduction of GLP-1 activity (cAMP luciferase reporter)” value (GLP-1 receptor [3]) was roughly 11 times, the “EC50 (pM) … in GLP1R_cAMP/luc cells” value (GLP-1 receptor [1]) was 304 pM and the “vs. GLP-1 relative activity (%)” value (GLP-1 receptor [1]) was 9%. The “EC50 (nM)” value (human GLP-2 receptor [2]) was 1.35 nM and the “vs. GLP-2 relative activity (%)” value (human GLP-2 receptor [2]) was 43%.

B3: MG12-5 (bispecific fusion protein of Example 5) (Fc fusion)
chain 1: HGEGTFTSDVSSYLEGQAAKEFIAWLVKGGPSSGAPPPSGGGGSGGGGSGGGGSEKEKEEQEERTHTCPPCPSHTQPLGVFLFPPKPKDQLMISRTPEVTCVVVDVSQEDPEVQFNWYVDGVEVHNAKTKPREEQFNSTYRVVSVLTVLHQDWLNGKEYKCKVSNKGLPSSIEKTISKAKGQPREPQVYTLPPCQEEMTKNQVSLWCLVKGFYPSDIAVEWESNGQPENNYKTTPPVLDSDGSFFLYSRLTVDKSRWQEGNVFSCSVLHEALHNHYTQKSLSLSLGK
chain 2: HGDGSFSDEMNTILDNLAARDFINWLIQTKITDGGGGSGGGGSGGGGSEKEKEEQEERTHTCPPCPSHTQPLGVFLFPPKPKDQLMISRTPEVTCVVVDVSQEDPEVQFNWYVDGVEVHNAKTKPREEQFNSTYRVVSVLTVLHQDWLNGKEYKCKVSNKGLPSSIEKTISKAKGQPREPQVCTLPPSQEEMTKNQVSLSCAVKGFYPSDIAVEWESNGQPENNYKTTPPVLDSDGSFFLVSRLTVDKSRWQEGNVFSCSVLHEALHNHYTQKSLSLSLGK
With B3 the “EC50 (pM) … in GLP1R_cAMP/luc cells” value (GLP-1 receptor [1]) was 75 pM, the “vs. GLP-1 relative activity (%)” value (GLP-1 receptor [1]) was 35% and the “EC50 (nM)” value (human GLP-2 receptor [2]) was 0.99 nM. The “vs. GLP-2 relative activity (%)” value (human GLP-2 receptor [2]) was 59%.

B4: MG12-2 (bispecific fusion protein of Example 2) (Fc fusion)
chain 1: HGDGSFSDEMNTILDNLAARDFINWLIQTKITDGGGGSGGGGSGGGGSAKNTTAPATTRNTTRGGEEKKKEKEKEEQEERTHTCPPCPSHTQPLGVFLFPPKPKDTLMISRTPEVTCVVVDVSQEDPEVQFNWYVDGVEVHNAKTKPREEQFNSTYRVVSVLTVLHQDWLNGKEYKCKVSNKGLPSSIEKTISKAKGQPREPQVYTLPPCQEEMTKNQVSLWCLVKGFYPSDIAVEWESNGQPENNYKTTPPVLDSDGSFFLYSRLTVDKSRWQEGNVFSCSVMHEALHNHYTQKSLSLSLGK
chain 2: HGEGTFTSDVSSYLEGQAAKEFIAWLVKGRGGGGGSGGGGSGGGGSEKEKEEQEERTHTCPPCPSHTQPLGVFLFPPKPKDTLMISRTPEVTCVVVDVSQEDPEVQFNWYVDGVEVHNAKTKPREEQFNSTYRVVSVLTVLHQDWLNGKEYKCKVSNKGLPSSIEKTISKAKGQPREPQVCTLPPSQEEMTKNQVSLSCAVKGFYPSDIAVEWESNGQPENNYKTTPPVLDSDGSFFLVSRLTVDKSRWQEGNVFSCSVMHEALHNHYTQKSLSLSLGK
modifications: glycan linker (SEQ ID NO: 43) with N-glycosylation sites
B4 was tested, and the “EC50, GLP-1 activity (luciferase reporter assay)” value (GLP-1 receptor [4]) was 0.402 nM and the “EC50, GLP-2 activity (fluorescence spectroscopy)” value (human GLP-2 receptor [5]) was 44 nM.
